This is an account of results in US20250369970A1 (ACADEMIA SINICA, published 2025).

As a reminder, the EC50 is the midpoint of the concentration-response curve.

The chains are these.
B1: p30-077 IgG (antibody, V domains shown)
VH: EVQLVESGGGLVQPGGSLRLSCAASGFTIGDWGIHWVRQAPGKGLEWVAGIWPFGGFTFYADSVKGRFTISADTSKNTAYLQMNSLRAEDTAVYYCARGSFYWDYWGQGTLVTVSS
VL: DIQMTQSPSSLSASVGDRVTITCRASQDVNNNVAWYQQKPGKAPKLLISSPTYLYSGVPSRFSGSGSGTDFTLTISSLQPEDFATYYCQQWYDWPITFGQGTKVEIKR
B2: p30-090 IgG (antibody, V domains shown)
VH: EVQLVESGGGLVQPGGSLRLSCAASGFTIDGGGIHWVRQAPGKGLEWVAGIWPSWGYTYYADSVKGRFTISADTSKNTAYLQMNSLRAEDTAVYYCARGFYWYDYWGQGTLVTVSS
VL: B1 VL with N32D, S49F, S50Y, T52G, Y53G, W91S, Y92W, D93N, W94Y, I96L
B3: p30-052 IgG (antibody, V domains shown)
VH: EVQLVESGGGLVQPGGSLRLSCAASGFTIDSGFIHWVRQAPGKGLEWVAGIGPFWGFTFYADSVKGRFTISADTSKNTAYLQMNSLRAEDTAVYYCARYGSSSYGFDYWGQGTLVTVSS
VL: B1 VL with N30D, T52G, Y53F, W91Y, Y92F, D93N, W94F
B4: p30-091 IgG (antibody, V domains shown)
VH: EVQLVESGGGLVQPGGSLRLSCAASGFTISDYWIHWVRQAPGKGLEWVAYINPHYGLTDYADSVKGRFTISADTSKNTAYLQMNSLRAEDTAVYYCARGWLLDYWGQGTLVTVSS
VL: DIQMTQSPSSLSASVGDRVTITCKSNQNLLDSGDQGTYLNWYQQKPGKAPKLLISDVSNLYSGVPSRFSGSGSGTDFTLTISSLQPEDFATYYCYQATSFPFTFGQGTKVEIKR

Numbering of substitutions follows the chain as printed.

For the assay, the target named is recombinant p30 protein of ASFV (African swine fever virus (ASFV), UniProt P0C9Z3 1-181). Put plainly: ELISA, IgG titrated on immobilized recombinant p30. Background: In an ELISA, binding on a coated surface is turned into a signal by an enzyme label.
B1: the concentration for a half-maximal effect (EC50) stood at 2.6 ng/mL. The figure for B2 is 0.9 ng/mL; for B3 it is 2 ng/mL. The figure for B4 is 2.6 ng/mL.
